Measurements as given in paper PMC6303327.

How the values were obtained:
[1] = molecular target: Rfa3 OB domain (DBD-E), residues 1-99, without the C-terminal trimerisation helix (S. cerevisiae) (UniProt P26755); experiment: MST; as the MST without ssDNA, but in the presence of excess ssDNA (dT10 at 2 µM in each binding reaction; grey trace); replicated twice; apparent EC50 from the Hill equation
[2] = molecular target: Rfa3 OB domain (DBD-E), residues 1-99, without the C-terminal trimerisation helix (S. cerevisiae) (UniProt P26755); experiment: MST; 50 nM NT-495-labelled DBD-E mixed with equal volumes of a dilution series of DBD-A; 20 mM Tris pH 7.5, 150 mM NaCl, 0.5 mM TCEP, 0.01% Tween-20, 0.1 mg/ml BSA; 25 °C; no ssDNA (black trace); apparent EC50 from the Hill equation

Chain of Rfa3 OB domain (DBD-E), residues 1-99, without the C-terminal trimerisation helix (S. cerevisiae) (P26755 1-99): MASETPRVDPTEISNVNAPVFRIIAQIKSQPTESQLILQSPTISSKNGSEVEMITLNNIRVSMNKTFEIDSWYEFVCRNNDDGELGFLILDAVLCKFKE
Chain of Rfa1 DNA-binding domain A (DBD-A), residues 178-294 (P22336 178-294): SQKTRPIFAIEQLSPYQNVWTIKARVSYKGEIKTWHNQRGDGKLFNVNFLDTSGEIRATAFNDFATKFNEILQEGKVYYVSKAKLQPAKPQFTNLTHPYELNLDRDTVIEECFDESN

EC50 [1] [µM]	EC50 [2] [µM]	Substance
84	96	Rfa1 DNA-binding domain A (DBD-A), residues 178-294 (from UniProt P22336 178-294) (domain or fragment)
25	23	Rfa1 DNA-binding domain A (DBD-A), residues 178-294, phosphomimetic S178D mutant (from UniProt P22336 178-294) (domain or fragment)
